The record followed here is publication PMC4786110.

In the assay the target is aMh-FcG2a, nanobody aMh fused with the Fc domain of mouse IgG2a (Camelus bactrianus | camel | mouse). The assay is described as follows: SPR; Biacore 3000; aMh-Fc captured by anti-mouse IgG immobilised on a CM5 chip; antigen flowed at 5.95-595 nM; 25°C, HBS-EP pH 7.4, 30 μl/min; 1:1 fitting. In general terms: In SPR one partner is held on a chip, and binding of the other changes the refractive index at the surface.
Chain of aMh-FcG2a, nanobody aMh fused with the Fc domain of mouse IgG2a (Camelus bactrianus | camel | mouse) (heavy, as listed by the source): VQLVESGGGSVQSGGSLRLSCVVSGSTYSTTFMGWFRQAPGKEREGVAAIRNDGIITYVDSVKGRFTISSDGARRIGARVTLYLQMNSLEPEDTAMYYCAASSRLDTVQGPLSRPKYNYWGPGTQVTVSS

In general, Kd refers to a measure of binding affinity in units of concentration. Broadly, the koff is the rate constant with which the complex falls apart. High values mean a short-lived complex, low ones a long-lived complex. Usually kon stands for the second-order rate constant of association. Lower therefore signals slow association. On to “ABC transporter substrate binding protein (MH3620) of Mycoplasma hominis (natural protein)”, for which the equilibrium dissociation constant (Kd) is 5.94 nM, the koff is 0.000106 s⁻¹ and the kon was 17800 M⁻¹ s⁻¹.
